From paper PMC11079166

B1: C-terminal fragment of BBK32 of B. burgdorferi B31 (domain or fragment)
chain: SNRYQSYLEGVKYNVDSAIQTITKIYNTYTLFSTKLTQMYSTRLDNFAKAKAKEEAAKFTKEDLEKNFKTLLNYIQVSVKTAANFVYINDTHAKRKLENIEAEIKTLIAKIKEQSNLYEAYKAIVTSILLMRDSLKEVQGIID

Experiments:
[1] = molecular target: CihC of B. recurrentis A17 (aa 20-356) (Borrelia recurrentis A17); experiment: ELISA; CihC/FbpC orthologs (5 µg/ml) immobilised, increasing plasminogen (0 to 1.5 µM); apparent dissociation constant by non-linear regression, one-site specific binding model
[2] = molecular target: CihC/FbpC ortholog of B. turicatae (aa 21-363) (Borrelia turicatae); experiment: as above
[3] = molecular target: CihC/FbpC ortholog of B. parkeri (aa 25-349) (Borrelia parkeri); experiment: as above
[4] = molecular target: CihC/FbpC of B. hermsii FRO (aa 21-374) (Borrelia hermsii FRO); experiment: as above
[5] = molecular target: complement component C1r (human)

Row | Molecule | IC50 of inhibition of the classical pathway (MAC formation, anti-C5b-9 ELISA on IgM; NHS pre-incubated with 0.001 to 4 µM protein) [5] [nM] | further results
1 | human glu-plasminogen (natural protein) |  | Kd [1]: 93.1 nM; Kd [2]: 284 nM; Kd [3]: 62.7 nM; Kd [4]: 24.2 nM
2 | CihC/FbpC of B. hermsii FRO (aa 21-374) (natural protein) | 56 | 
3 | CihC-C of B. recurrentis (aa 195-356) (domain or fragment) | 272 | 
4 | CihC of B. recurrentis A17 (aa 20-356) (natural protein) | 62 | 
5 | CihC/FbpC ortholog of B. turicatae (aa 21-363) (natural protein) | 95 | 
6 | CihC/FbpC ortholog of B. parkeri (aa 25-349) (natural protein) | 63 | 
7 | B1 | 75 | 
